Laboratory results reported in patent publication US20250295803A1, “5T4 ANTIBODY-DRUG CONJUGATES AND USES THEREOF” (EXELIXIS, INC., priority 2022, published 2025).
Where a chain is given by its changes, count along the chain named.

T1: unconjugated human TPBG/5T4 protein with a c-terminal polyhistidine and Avi tag (AcroBiosystems Cat. No. … (human, UniProt Q13641 32-355))
T1 construct: Bought protein; also called Acro TPGH52E5; Acro Catalog No. TPGH52E; not shown: C-terminal polyhistidine and Avi tag
T1 sequence: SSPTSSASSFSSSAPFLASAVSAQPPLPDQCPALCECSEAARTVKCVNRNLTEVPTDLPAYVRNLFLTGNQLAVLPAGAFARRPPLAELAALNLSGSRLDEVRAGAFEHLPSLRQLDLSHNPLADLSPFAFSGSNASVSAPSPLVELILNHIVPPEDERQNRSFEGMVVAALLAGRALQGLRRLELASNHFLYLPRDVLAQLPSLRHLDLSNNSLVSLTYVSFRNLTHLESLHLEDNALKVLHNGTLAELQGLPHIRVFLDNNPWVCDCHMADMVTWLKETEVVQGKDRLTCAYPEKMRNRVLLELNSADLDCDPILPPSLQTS

T2: human 5T4 produced internally (Lot 20-019-62) (human, UniProt Q13641 32-355)
T2 construct: 'also produced separately'; also called Internal (Lot 20-019-62)
T2 sequence: T1 sequence

B1: mAbA17: 5T4 antibody comprising VH of SEQ ID NO:62 and VL of SEQ ID NO:63 (antibody, V domains shown)
VH: EVQLVESGGGLVQPGGSLRLSCAASGFTFSRYWIHWVRQAPGKGLEWVAAIFPYSGSTLYADSVKGRFTISADTSKNTAYLQMNSLRAEDTAVYYCARSPSRSILPSGLDYWGQGTLVTVSS
VL: DIQMTQSPSSLSASVGDRVTITCRASQSVSSAVAWYQQKPGKAPKLLIYSASSLYSGVPSRFSGSRSGTDFTLTISSLQPEDFATYYCQQGDGSPYTFGQGTKVEIK
modifications: Antibody mAbA17 VH Sequence; Antibody mAbA17 VL Sequence
B2: mAbA4: 5T4 antibody comprising VH of SEQ ID NO:25 and VL of SEQ ID NO:26 (antibody, V domains shown)
VH: EVQLVESGGGLVQPGGSLRLSCAASGFTFSRYYIHWVRQAPGKGLEWVAFISPGGSYTYYADSVKGRFTISADTSKNTAYLQMNSLRAEDTAVYYCAREYYSMGVLDYWGQGTLVTVSS
VL: B1 VL with G91A, D92Y, G93E
modifications: Antibody mAbA4 VH Sequence; Antibody mAbA4 VL Sequence
B3: mAbA15: 5T4 antibody comprising VH of SEQ ID NO:44 and VL of SEQ ID NO:45 (antibody, V domains shown)
VH: EVQLVESGGGLVQPGGSLRLSCAASGFTFSSYYIHWVRQAPGKGLEWVAYITSTGSYTEYADSVKGRFTISADTSKNTAYLQMNSLRAEDTAVYYCARYDRSTRYSGLDYWGQGTLVTVSS
VL: B1 VL with G91A, D92Y, G93A, S94T, Y96V
modifications: Antibody mAbA15 VH Sequence; Antibody mAbA15 VL Sequence
B4: mAbA17 (antibody, V domains shown)
VH: B1 VH
VL: DIQMTQSPSSLSASVGDRVTITCRASQSVSSAVAWYQQKPGKAPKLLIYSASSLYSGVPSRFSGSRSGTDFTLTISSLQPEDFATYYCQQGDGSPYTFGQGTKVEIKR
notes: also called Antibody mAbA17
B5: mAbA4 (antibody, V domains shown)
VH: B2 VH
VL: B4 VL with G91A, D92Y, G93E
notes: also called Antibody mAbA4
B6: mAbA15 (antibody, V domains shown)
VH: B3 VH
VL: B4 VL with G91A, D92Y, G93A, S94T, Y96V
notes: also called Antibody mAbA15

System: HEK-5T4 cells
Experiment: Cell binding (flow cytometry), HEK-5T4 cells
Assay type: cell-based
Details: not given
Experimental: (§1) Antibodies that were selected for binding to 5T4, for example, such as those described in Example 2, were evaluated for binding to cells that express 5T4. Cells were harvested at 70-90% confluence on the day of the assay. In a v-bottom 96-well plate (Costar 3897), 100,000 cells per well were incubated with 50 μL per well 8- or 12-point antibody dilution series for 30 minutes at +4° C. After incubation, cells were washed once with PBS by centrifugation at 200×g for 5 minutes. Cells were then incubated with 50 μL per well of Alexa Fluor 488 Goat anti-human IgG Fab (Jackson Immuno Research 109-547-003) at 1:100 dilution for 30 minutes at +4° C. Cells were washed twice with PBS by centrifugation at 200×g for 5 minutes and were acquired on iQue Screener Plus (Sartorius). Mean fluorescence intensities of BL1 (Alexa-Fluor-488) channel were plotted against antibody concentrations to generate a dose response curve and EC50 values.

| Molecule | binding to HEK-5T4 cells |
| --- | --- |
| B1 | binding |
| B2 | binding |
| B3 | binding |

System: HEK-cyno-5T4 cells
Experiment: Cell binding (flow cytometry), HEK-cyno-5T4 cells
Assay type: cell-based
Details: not given
Experimental: as §1

| Molecule | binding to HEK-cyno-5T4 cells |
| --- | --- |
| B1 | binding |
| B2 | binding |
| B3 | binding |

System: not listed separately
Experiment: Size exclusion chromatography (SEC) developability
Assay type: physicochemical
Details: 1 mg/mL in Dulbecco's PBS pH 7.4
Experimental: Antibodies that were selected for binding to 5T4, such as those described in Examples 2 and 3, were tested by various methods to assess developability. For example, various chromatographic methods, including size exclusion chromatography (SEC), hydrophobic interaction chromatography (HIC), and standup monolayer adsorption chromatography (SMAC) were employed to assess factors, such as monomer percentage, solubility, and antibody aggregation or precipitation.
Size exclusion chromatography (SEC) analysis was performed using a 7.8 mm ID×30 cm TSKgel G3000SWXL column (Tosoh Bioscience LLC, PN 08541) with a 6 mm×4 cm guard column (PN 08543) on an Agilent 1100 HPLC. Antibodies were normalized to 1 mg/mL concentration in Dulbecco's PBS (pH 7.4, without Ca^2+/Mg^2+) and clarified via centrifugation to pellet particulates while still retaining soluble aggregates. The mobile phase buffer was Dulbecco's PBS (pH 7.4, without Ca^2+/Mg^2+) at 2× concentration (diluted from 10× stock concentration. For each sample, 10 μL was loaded and isocratically eluted at 1.0 mL/minute over 20 minutes at ambient temperature. Absorbance was monitored at 280 nm. Chromatographic peaks were integrated to determine percentage of homogeneity and retention time. The column stationary phase along with choice of mobile phase supports hydrophobic and electrostatic interactions in addition to molecular sizing (secondary interactions much milder compared to SMAC). Data analysis was performed using Agilent ChemStation B.04.03 SP1.

| Molecule | developability based on SEC analysis |
| --- | --- |
| B1 | strong developability |
| B2 | strong developability |
| B3 | strong developability |

Molecular target: T1, unconjugated human TPBG/5T4 protein …
Experiment: ELISA on coated human 5T4 His-Avi (Acro TPG-H52E5); antibody condition: PBS Time 0
Details: not given
Experimental: (§2) A. Normal Binding Unconjugated antibodies were tested for their ability to bind to human 5T4 (hu5T4) using ELISA. On Day 1, unconjugated human TPBG/5T4 protein with a c-terminal polyhistidine and Avi (AVITAG™) tag (AcroBiosystems (Newark, DE, USA), Cat. No. TPG-H52E5) was diluted 2 μg/mL in PBS, mixed thoroughly, plated 100 μL per well in a 96-well plate (Nunc MAXISORP®) and incubated overnight at 4° C.
(§3) 3. Oxidative Stress. Several unconjugated antibodies were tested for their ability to bind to 5T4 using ELISA in an oxidative environment. Solutions of 1 mg/mL to 10 mg/mL of antibody in 20 mM citrate/50 mM NaCl at a pH of 5.5 were prepared and stored at 37° C. for 1 to 2 weeks.

| Molecule | EC50 |
| --- | --- |
| B4 | 0.198 nM |
| B5 | 0.182 nM |
| B6 | 0.229 nM |

Molecular target: T1, unconjugated human TPBG/5T4 protein …
Experiment: ELISA on coated human 5T4 His-Avi (Acro TPG-H52E5); antibody condition: pH 5.5 Day 1
Details: not given
Experimental: as §2

| Molecule | EC50 |
| --- | --- |
| B4 | 0.159 nM |
| B5 | 0.132 nM |
| B6 | 0.134 nM |

Molecular target: T1, unconjugated human TPBG/5T4 protein …
Experiment: ELISA on coated human 5T4 His-Avi (Acro TPG-H52E5); antibody condition: PBS + H2O2 time 0
Details: not given
Experimental: as §2, §3

| Molecule | EC50 |
| --- | --- |
| B4 | 0.188 nM |
| B5 | 0.225 nM |
| B6 | 0.191 nM |

Molecular target: T2, human 5T4 produced internally (Lot …)
Experiment: Octet, antibody on AHC sensors, human 5T4 in solution (monovalent); Internal Lot 20-019-62
Details: not given
Experimental: (§4) Monovalent binding assays were employed to determine the relative affinity of each 5T4 binder obtained by the phage display in Example 1 to human 5T4. Human 5T4 was purchased from Acro Biosystems (Acro Catalog No. TPGH52E) and also produced separately. The monovalent interaction of binders to human 5T4 was monitored using an Octet (Pall ForteBio) instrument. For these assays, 36 nM antibody was immobilized on anti-human Fc (AHC) sensors in 1× kinetic buffer (ForteBio). The sensors were then dipped in wells containing a 3× serial dilution of human 5T4 ranging from 1 μM to 1.37 nM. The association was allowed to reach equilibrium. Sensors were then moved to wells containing only 1× kinetic buffer and allowed to dissociate to equilibrium. Association and dissociation rates were measured and from these, monovalent KDS were calculated using the onboard analysis software (ForteBio).

| Molecule | Kd |
| --- | --- |
| B4 | 9.34 nM |
| B5 | 83 nM |
| B6 | 10.4 nM |

Molecular target: T1, unconjugated human TPBG/5T4 protein …
Experiment: Octet, antibody on AHC sensors, human 5T4 in solution (monovalent); Acro TPGH52E5 Lot B465-87AF1-K2
Details: not given
Experimental: as §4

| Molecule | Kd |
| --- | --- |
| B4 | 2.81 nM |
| B5 | 0.01 nM |
| B6 | 3.62 nM |
